# Results published in patent publication US20100003727.
# T1: lipoamide-containing aminomethyl transferase (GcvH, H-protein) of C. jeikeium
# T1 chain: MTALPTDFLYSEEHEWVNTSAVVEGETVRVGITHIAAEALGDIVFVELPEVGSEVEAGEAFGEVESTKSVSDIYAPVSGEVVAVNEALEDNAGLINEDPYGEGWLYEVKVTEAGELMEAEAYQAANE
# B1: lipoyl transferase (LipB protein) of C. jeikeium (protein)
# chain: MGFQQGSIRKANMGTTGTNDGATTPPANTSTPAVDIDVRDLGTVDYEDTWHLQANLAAQRAEEKIPDTILLLQHPPTYTAGKRTQDSDRPTNGLPVVDVDRGGRITWHGPGQLVAYPIIKLADPVDVVDYVRRLEQALIQTCEDLGLHGTGRVEGRSGVWLPAGVINGELKPARKIAAIGIRVTRGVTMHGVALNCDNTMEYYDHIVPCGLADAGVTTLTEELGRDVSVSDAYSSLAHNLVDALNGDLPVHS
# Molecular target: T1, lipoamide-containing aminomethyl …
protein,measurement,value
B1,"growth of serine-auxotrophic C. glutamicum OM264C transformants (pOM620AF, pOM621AR) on minimal glycine plates without serine and without lipoic acid","both transformants grew, while OM264C(pCLIK) did not"
